According to paper PMC8634136 (The EMBO Journal, 2021):

T1: TIMELESS (human, UniProt Q9UNS1 1-1208)
T1 construct: Stood in the structure as a subunit of m3; residues 7-803 modelled (527-684 not visualised)
T1 sequence: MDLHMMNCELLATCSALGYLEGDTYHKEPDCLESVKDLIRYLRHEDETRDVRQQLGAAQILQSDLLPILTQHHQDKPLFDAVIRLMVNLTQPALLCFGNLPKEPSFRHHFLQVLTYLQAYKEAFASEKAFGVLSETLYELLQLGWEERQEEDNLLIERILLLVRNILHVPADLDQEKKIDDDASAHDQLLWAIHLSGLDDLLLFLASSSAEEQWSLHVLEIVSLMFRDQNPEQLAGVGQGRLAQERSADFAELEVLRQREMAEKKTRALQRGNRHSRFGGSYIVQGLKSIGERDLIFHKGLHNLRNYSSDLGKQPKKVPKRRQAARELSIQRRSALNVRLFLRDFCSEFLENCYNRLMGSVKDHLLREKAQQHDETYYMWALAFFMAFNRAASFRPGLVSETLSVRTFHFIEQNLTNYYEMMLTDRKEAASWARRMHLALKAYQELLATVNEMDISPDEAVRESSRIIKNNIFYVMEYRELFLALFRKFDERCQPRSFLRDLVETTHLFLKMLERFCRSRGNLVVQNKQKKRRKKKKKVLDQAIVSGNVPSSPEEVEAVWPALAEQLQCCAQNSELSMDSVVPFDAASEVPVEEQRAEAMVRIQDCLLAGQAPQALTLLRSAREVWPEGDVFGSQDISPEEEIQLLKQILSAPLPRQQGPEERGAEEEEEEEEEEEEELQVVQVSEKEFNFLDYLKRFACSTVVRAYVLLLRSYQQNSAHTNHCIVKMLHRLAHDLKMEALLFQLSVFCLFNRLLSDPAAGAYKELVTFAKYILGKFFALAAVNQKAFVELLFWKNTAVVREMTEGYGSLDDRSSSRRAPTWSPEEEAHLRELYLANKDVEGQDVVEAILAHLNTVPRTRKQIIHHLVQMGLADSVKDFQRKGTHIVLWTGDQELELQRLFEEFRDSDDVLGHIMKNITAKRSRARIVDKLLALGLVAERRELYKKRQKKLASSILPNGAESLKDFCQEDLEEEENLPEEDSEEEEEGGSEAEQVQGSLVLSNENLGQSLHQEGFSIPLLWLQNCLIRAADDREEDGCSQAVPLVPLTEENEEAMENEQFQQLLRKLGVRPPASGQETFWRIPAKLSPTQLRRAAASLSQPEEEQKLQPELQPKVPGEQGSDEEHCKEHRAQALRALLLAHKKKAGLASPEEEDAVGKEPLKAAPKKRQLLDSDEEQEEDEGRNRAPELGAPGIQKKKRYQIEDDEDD

B1: TIMELESS (natural protein, human)
chain: T1 sequence
notes: residues 7-803 modelled, 527-684 not seen; Purified together with TIPIN; written here as a single subunit for the pairwise contacts in the replisome structure
B2: MCM6 (natural protein, human)
chain: MDLAAAAEPGAGSQHLEVRDEVAEKCQKLFLDFLEEFQSSDGEIKYLQLAEELIRPERNTLVVSFVDLEQFNQQLSTTIQEEFYRVYPYLCRALKTFVKDRKEIPLAKDFYVAFQDLPTRHKIRELTSSRIGLLTRISGQVVRTHPVHPELVSGTFLCLDCQTVIRDVEQQFKYTQPNICRNPVCANRRRFLLDTNKSRFVDFQKVRIQETQAELPRGSIPRSLEVILRAEAVESAQAGDKCDFTGTLIVVPDVSKLSTPGARAETNSRVSGVDGYETEGIRGLRALGVRDLSYRLVFLACCVAPTNPRFGGKELRDEEQTAESIKNQMTVKEWEKVFEMSQDKNLYHNLCTSLFPTIHGNDEVKRGVLLMLFGGVPKTTGEGTSLRGDINVCIVGDPSTAKSQFLKHVEEFSPRAVYTSGKASSAAGLTAAVVRDEESHEFVIEAGALMLADNGVCCIDEFDKMDVRDQVAIHEAMEQQTISITKAGVKATLNARTSILAAANPISGHYDRSKSLKQNINLSAPIMSRFDLFFILVDECNEVTDYAIARRIVDLHSRIEESIDRVYSLDDIRRYLLFARQFKPKISKESEDFIVEQYKHLRQRDGSGVTKSSWRITVRQLESMIRLSEAMARMHCCDEVQPKHVKEAFRLLNKSIIRVETPDVNLDQEEEIQMEVDEGAGGINGHADSPAPVNGINGYNEDINQESAPKASLRLGFSEYCRISNLIVLHLRKVEEEEDESALKRSELVNWYLKEIESEIDSEEELINKKRIIEKVIHRLTHYDHVLIELTQAGLKGSTEGSESYEEDPYLVVNPNYLLED
notes: human MCM6, subunit of hsCMG; Subunit of the CMG helicase in the replisome structure; source: Hi5 insect cells co-infected with baculoviruses for MCM2-7, GINS and CDC45; purified as hsCMG (Flag M2, Strep-Tactin XT, MonoQ)
B3: MCM4 (natural protein, human)
chain: MSSPASTPSRRGSRRGRATPAQTPRSEDARSSPSQRRRGEDSTSTGELQPMPTSPGVDLQSPAAQDVLFSSPPQMHSSAIPLDFDVSSPLTYGTPSSRVEGTPRSGVRGTPVRQRPDLGSAQKGLQVDLQSDGAAAEDIVASEQSLGQKLVIWGTDVNVAACKENFQRFLQRFIDPLAKEEENVGIDITEPLYMQRLGEINVIGEPFLNVNCEHIKSFDKNLYRQLISYPQEVIPTFDMAVNEIFFDRYPDSILEHQIQVRPFNALKTKNMRNLNPEDIDQLITISGMVIRTSQLIPEMQEAFFQCQVCAHTTRVEMDRGRIAEPSVCGRCHTTHSMALIHNRSLFSDKQMIKLQESPEDMPAGQTPHTVILFAHNDLVDKVQPGDRVNVTGIYRAVPIRVNPRVSNVKSVYKTHIDVIHYRKTDAKRLHGLDEEAEQKLFSEKRVELLKELSRKPDIYERLASALAPSIYEHEDIKKGILLQLFGGTRKDFSHTGRGKFRAEINILLCGDPGTSKSQLLQYVYNLVPRGQYTSGKGSSAVGLTAYVMKDPETRQLVLQTGALVLSDNGICCIDEFDKMNESTRSVLHEVMEQQTLSIAKAGIICQLNARTSVLAAANPIESQWNPKKTTIENIQLPHTLLSRFDLIFLLLDPQDEAYDRRLAHHLVALYYQSEEQAEEELLDMAVLKDYIAYAHSTIMPRLSEEASQALIEAYVDMRKIGSSRGMVSAYPRQLESLIRLAEAHAKVRLSNKVEAIDVEEAKRLHREALKQSATDPRTGIVDISILTTGMSATSRKRKEELAEALKKLILSKGKTPALKYQQLFEDIRGQSDIAITKDMFEEALRALADDDFLTVTGKTVRLL
notes: MCM4, human; Stood in the structure as a subunit of m1; source: Hi5 insect cells, purified as a subunit of hsCMG

Key:
[1] = molecular target: T2, CLASPIN (human, UniProt Q9HAW4-1 1-1339); assay: cryo-EM structure; independent replisome preparation that also contained CLASPIN; map EMD-13494 (to be published in a separate study), model PDB 7PFO docked into the density; conditions: both partners purified
T2 construct: human CLASPIN; residues 284-319, 525-540 and 592-618 modelled
T2 sequence (Q9HAW4 whole entry, the tested form may be a part): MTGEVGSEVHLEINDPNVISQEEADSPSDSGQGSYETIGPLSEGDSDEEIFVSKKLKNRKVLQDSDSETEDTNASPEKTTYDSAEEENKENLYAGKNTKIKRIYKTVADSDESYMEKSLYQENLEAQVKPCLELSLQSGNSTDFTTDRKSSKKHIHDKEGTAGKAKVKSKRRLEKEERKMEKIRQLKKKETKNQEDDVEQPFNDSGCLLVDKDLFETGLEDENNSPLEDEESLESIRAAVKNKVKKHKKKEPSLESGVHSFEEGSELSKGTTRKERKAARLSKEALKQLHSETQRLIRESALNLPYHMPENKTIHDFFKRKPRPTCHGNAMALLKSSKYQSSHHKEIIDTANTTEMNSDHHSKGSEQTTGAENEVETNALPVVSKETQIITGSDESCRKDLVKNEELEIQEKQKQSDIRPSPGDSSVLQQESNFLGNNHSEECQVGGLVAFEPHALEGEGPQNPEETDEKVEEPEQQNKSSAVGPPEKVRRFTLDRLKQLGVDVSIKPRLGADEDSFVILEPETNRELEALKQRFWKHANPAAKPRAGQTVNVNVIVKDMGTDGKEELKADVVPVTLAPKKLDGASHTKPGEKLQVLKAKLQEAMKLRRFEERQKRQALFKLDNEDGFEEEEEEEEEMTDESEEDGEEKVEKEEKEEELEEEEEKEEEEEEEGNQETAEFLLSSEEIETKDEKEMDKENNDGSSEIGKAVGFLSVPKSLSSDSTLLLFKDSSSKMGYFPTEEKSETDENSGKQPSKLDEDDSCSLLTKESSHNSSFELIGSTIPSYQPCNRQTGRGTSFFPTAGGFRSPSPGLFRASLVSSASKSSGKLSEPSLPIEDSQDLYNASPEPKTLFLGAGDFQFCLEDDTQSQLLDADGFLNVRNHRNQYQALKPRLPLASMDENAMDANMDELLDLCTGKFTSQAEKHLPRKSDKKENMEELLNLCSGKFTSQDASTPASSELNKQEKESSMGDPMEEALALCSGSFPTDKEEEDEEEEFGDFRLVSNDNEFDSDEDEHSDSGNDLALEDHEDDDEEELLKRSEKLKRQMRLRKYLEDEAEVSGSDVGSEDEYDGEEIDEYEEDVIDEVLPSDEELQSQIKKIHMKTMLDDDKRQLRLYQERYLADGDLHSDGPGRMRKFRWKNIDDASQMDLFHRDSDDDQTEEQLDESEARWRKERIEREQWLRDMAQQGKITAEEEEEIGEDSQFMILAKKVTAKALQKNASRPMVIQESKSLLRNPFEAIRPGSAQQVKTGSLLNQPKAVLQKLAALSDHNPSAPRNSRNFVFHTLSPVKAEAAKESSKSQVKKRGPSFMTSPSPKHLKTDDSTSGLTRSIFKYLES

[2] = molecular target: T1, TIMELESS; assay: cryo-EM structure; replisome reconstituted on fork DNA with AMP-PNP, isolated on a glycerol gradient with glutaraldehyde and BS3; 3.2 Å overall; a sample without CLASPIN solved at 3.4 Å; conditions: both partners purified

Binder | binding result [1] | binding result [2]
B1 | binds | 
B2 | binds | 
B3 |  | binds
